# Source: PMC7858651, “Modulation of Increased mGluR1 Signaling by RGS8 Protects Purkinje Cells From Dendritic Reduction and Could Be a Common Mechanism in Diverse Forms of Spinocerebellar Ataxia” (Frontiers in Cell and Developmental Biology, 2020)
# What was measured:
# [1] = target: T1, PKCγ(S361G)-tGFP (human, UniProt P05129 1-697, S361G); experiment: co-IP; HEK293T cells expressing mGluR1, transfected with PKCγ-tGFP, PKCγ(S361G)-tGFP or tGFP alone; tGFP trap agarose beads (Chromotek); IPs blotted with anti-mGluR1 and anti-tGFP; amounts quantified and normalised to wild-type PKCγ-tGFP; settings: partners not purified
# T1 construct: Protein Kinase C gamma (PKCγ) with the SCA14-associated human mutation S361G; plasmid pCMV-PKCγ(S361G)-tGFP, a gift (Shimobayashi and Kapfhammer, 2017); also called mutated PKCγ(S361G); mutant PKCγ(S361G); source: HEK293T, transfected (pCMV-PKCγ(S361G)-tGFP), in lysate
# [2] = target: T2, wild-type PKCγ-tGFP (UniProt P05129 1-697); experiment: as above; settings: partners not purified
# T2 construct: Protein Kinase C gamma (PKCγ), wild type; plasmid pCMV-PKCγ-tGFP, a gift (Shimobayashi and Kapfhammer, 2017); also called WT PKCγ; source: HEK293T, transfected (pCMV-PKCγ-tGFP), in lysate
binder,measurement,setting,value
"metabotropic glutamate receptor 1 (mGluR1) (receptor, UniProt P97772 21-1199, looked up, metabotropic glutamate receptor 1 (mGluR1), expressed from the vector pCMV-mGluR1 bought from Origene; source: HEK293T, transfected (pCMV-mGluR1, Origene), in lysate) RMPDRKVLLAGASSQRSVARMDGDVIIGALFSVHHQPPAEKVPERKCGEIREQYGIQRVEAMFHTLDKINADPVLLPNITLGSEIRDSCWHSSVALEQSIEFIRDSLISIRDEKDGLNRCLPDGQTLPPGRTKKPIAGVIGPGSSSVAIQVQNLLQLFDIPQIAYSATSIDLSDKTLYKYFLRVVPSDTLQARAMLDIVKRYNWTYVSAVHTEGNYGESGMDAFKELAAQEGLCIAHSDKIYSNAGEKSFDRLLRKLRERLPKARVVVCFCEGMTVRGLLSAMRRLGVVGEFSLIGSDGWADRDEVIEGYEVEANGGITIKLQSPEVRSFDDYFLKLRLDTNTRNPWFPEFWQHRFQCRLPGHLLENPNFKKVCTGNESLEENYVQDSKMGFVINAIYAMAHGLQNMHHALCPGYVGLCDAMKPIDGRKLLDFLIKSSFVGVSGEEVWFDEKGDAPGRYDIMNLQYTEANRYDYVHVGTWHEGVLNIDDYKIQMNKSGMVRSVCSEPCLKGQIKVIRKGEVSCCWICTACKENEFVQDEFTCRACDLGWWPNAELTGCEPITIRYLEWSDIESIIAIAFSCLGILVTLFVTLIFVLYRDTPVVKSSSRELCYIILAGIFLGYVCPFTLIAKPTTTSCYLQRLLVGLSSAMCYSALVTKTNRIARILAGSKKKICTRKPRFMSAWAQVIIASILISVQLTLVVTLIIMEPPMPILSYPSIKEVYLICNTSNLGVVAPVGYNGLLIMSCTYYAFKTRNVPANFNEAKYIAFTMYTTCIIWLAFVPIYFGSNYKIITTCFAVSLSVTVALGCMFTPKMYIIIAKPERNVRSAFTTSDVVRMHVGDGKLPCRSNTFLNIFRRKKPGAGNANSNGKSVSWSEPGGRQAPKGQHVWQRLSVHVKTNETACNQTAVIKPLTKSYQGSGKSLTFSDASTKTLYNVEEEDNTPSTHFSPPSSPSMVVHRRGPPVATTPPLPPHLSAEETPLFLADSVIPKGLPPPLPQQQQQPPPQPPPQQPKSLMDQLQGVVTNFGSGIPDFHAVLAGPGTPGNGLRSLYPPPPPPQHLQMLPLQLSTFREEPISPPGEDDDDDSSERFKLLQEFVYEREGNTEEDDLEEEEDLPAASKLTPEDSPALTPPSPFRDSVASGSSVPSSPVSESVLCTPPNVTYASVILRDYKQSSSTL","relative amount bound, normalised to wild-type PKCγ-tGFP",[1],1.26 relative to wild-type PKCγ-tGFP
same,"relative amount bound, normalised to wild-type PKCγ-tGFP",[2],1 relative to wild-type PKCγ-tGFP
